Key:
[1] = tested on: GFRα1-expressing, RET-deficient MDCK cells; test: Boyden chamber cell migration and chemotaxis assay; type: cell-based, dog
Procedure: (§1) FIG. 3A: In Boyden chamber chemotaxis assays, mock-transfected, GFRα1-expressing and RET/GFRα1-expressing cells were exposed to GDNF, and wild-type MDCK to HGF. The number of cells was counted as described in Materials and Methods. +/+=GDNF at 100 ng/ml or HGF at 50 ng/ml was added to both chambers to assay chemokinesis. Each result represents the mean±SEM (n=3). For each case, p<0.001.
(§2) 5×10^4 MDCK cells (GFRα1-, RET/GFRα1-expressing and mock transfected) were suspended in 300 µl of MEM with 10% FCS and seeded into 24-well cell culture inserts with the filters (Boyden chambers), pore size 8 μm (Falcon). The assay was done as described (Tang et al., 1998). Briefly, GDNF or HGF was added to the upper, or both the upper and lower chambers at the marked concentrations. After 48 h incubation, non-migrated cells on the upper surface of the filters were scrapped. Membranes with the cells on the lower surface were washed with PBS, fixed by 3% glutaraldehyde in PBS, stained with May-Grünwald Giemsa (MGG) solution, dehydrated and mounted on the slides. Cells in eight fields of each membrane were counted under the light microscope (Magnification=100×). The average and standard error of the mean were calculated. Statistical significance of the differences was estimated by t-test.
(§3) Guided migration of cells towards a chemoattractant is referred to as chemotaxis, whereas enhanced cellular motility is called chemokinesis. Chemotaxis can be tested in the Boyden dual chamber assay by adding the test substance to the lower chamber only, and chemokinesis by adding test substance to both upper and lower chambers. […] Similarly, the chemotactic migration of RET/GFRα1co-expressing MDCK cells is stimulated by GDNF in the presence of soluble GFRα1 (Tang et al., 1998).

[2] = tested on: RET/GFRα1-expressing MDCK cells; test: Boyden chamber cell migration and chemotaxis assay; type: cell-based, dog
Procedure: as §1, §2, §3

[3] = tested on: RET/GFRα1-expressing MDCK cells; test: Chemoattraction assay on collagen matrix with soaked agarose beads; type: cell-based, dog; conditions: beads soaked in GDNF 10 ng/μl; collagen I; 3 days
From the text: FIG. 3B: Chemoattraction assay on collagen matrix. Only RET/GFRα1-expressing cells migrate towards GDNF-soaked agarose beads. BSA-soaked agarose beads were used as negative controls. Agarose beads are denoted by white circles. Note that mock transfected, GFRα1-expressing and RET/GFRα1-expressing cells form clusters of adherent cells (denoted by arrowhead) with BSA-soaked beads after 3 days, whereas RET/GFRα1 cells migrating towards GDNF bead are dissociated.
3.5 cm dishes were coated with collagen I solution and 20,000 cells were seeded on the coated dish. GDNF-soaked agarose beads, prepared as described (Sainio et al., 1997), were put on the gel before it solidified. Cells around the beads were photographed daily.
In another chemotaxis assay, RET/GFRα1-, GFRα1- and mock-transfected MDCK cells were seeded on culture dishes coated with collagen I. Agarose beads were soaked in GDNF (10 ng/μl) or 1% BSA. A bead was placed on top of the soft collagen, and cells were monitored for 3 days.

MET [4] = test: MET phosphorylation in MDCK cells (immunoprecipitation, Western blotting); type: cell-based, dog
Procedure: To detect MET activation, GFRα1- and RET/GFRα1-expressing MDCK or SHEP cells were starved overnight in MEM or RPMI 1640 with 1% FCS, respectively, and in serum-free medium for 2 h prior the induction. After 15 min incubation at 37° C. with GDNF (at indicated concentrations) or with 50 ng/ml HGF, cells were lysed as described. Cleared cell lysates were incubated with anti-MET antibodies (Santa Cruz Biotechnologies, Inc.) overnight at 4° C. Immunoprecipitates were collected with protein A-SEPHAROSE (Amersham Pharmacia Biotech), washed, separated by SDS-PAGE and transferred to HYBOND-ECL membranes. Membranes were immunoblotted with anti-phospho-tyrosine antibodies (Upstate Group Inc.) or anti-MET antibodies.
Alternatively, 30 μg of protein was incubated overnight at 4° C. with 10 μl Immobilized Phospho-Tyrosine Monoclonal Antibodies (Cell Signalling, NEB). Immunocomplexes were washed and analysed as described.
For all experiments, densitometry and quantifications were performed using TINA 2.0 program (Raytest, Straubenhardt, Germany).
For the inhibition of MET, and Src activation, SHEP or GFRα1- and RET/GFRα1-expressing MDCK cells were starved as described above. 1 or […] of the inhibitor PP2 (Calbiochem) was added 30 min before induction by GDNF or HGF. DMSO (dimethyl sulfoxide) was added to the positive controls together with GDNF or HGF.

Src-type kinases = test: Src activation (Tyr418 phosphorylation) in MDCK cells; type: cell-based, dog; conditions: GFRα1-expressing and RET/GFRα1-expressing MDCK cells
Procedure: FIG. 7A: Dose-dependent Src-kinase activation by GDNF in GFRα1-expressing and RET/GFRα1-expressing MDCK cells. The activation of Src-type kinases was observed after 15 minutes. The concentrations of GDNF are indicated. The numbers below the lane reflect the fold of increase in phosphorylation of Tyr418 of Src. The lower panels show the re-probing of the same filter with anti-Src antibodies. The results are representative of three independent experiments.
To analyze Src activation, subconfluent GFRα1- and RET/GFRα1-expressing MDCK cell cultures were starved for 24 h before induction in serum-free MEM. After 10 min incubation at 37° C. with 50 ng/ml GDNF (Cephalon Inc. or R&D Systems, Inc.) or 50 ng/ml HGF (Sigma) cells were lysed in lysis buffer supplemented with 1 mM Na-orthovanadate and analyzed by Western blotting as described (Lindahl et al., 2001). The Western blots were probed with the indicated antibodies and developed with ECL reagents (Amersham Pharmacia Biotech). Antibodies used included anti-Y^418 Src and anti-Src (BioSource International).
Possible candidates for messengers between GDNF-GFRα1 complex and MET are Src family kinases. […]

MET [5] = test: MET activation in GFRα1-transfected NIH 3T3 fibroblasts; type: cell-based
[6] = GDNF 100 ng/ml added to both chambers

B1: GDNF: recombinant glial cell line-derived neurotrophic factor from Cephalon Inc. (baculovirus-infected insect cells) or R&D Systems, Inc. (mouse myeloma NSO) (protein, UniProt P39905 78-211, looked up)
Glial cell line-derived …: SPDKQMAVLPRRERNRQAAAANPENSRGKGRRGQRGKNRGCVLTAIHLNVTDLGLGYETKEELIFRYCSGSCDAAETTYDKILKNLSRNRRLVSDKVGQACCRPIAFDDDLSFLDDNLVYHILRKHSAKRCGCI
chemotactic response ([1]; Boyden chamber, 48 h): did not demonstrate a chemotactic response
migration with ligand in both chambers (chemokinesis) [1, 6]: only slightly reduced
chemotactic migration ([2]; Boyden chamber, 48 h): induced chemotactic migration
migration with ligand in both chambers compared to the maximal chemotactic response (chemokinesis) [2, 6]: reduced threefold
migration towards soaked agarose bead [3]: actively migrated towards the source of GDNF
MET phosphorylation (MET [4]; GFRα1- and Ret/GFRα1-expressing MDCK cells): evoked MET phosphorylation
GDNF concentration at which MET activation reached saturation (MET [4]; GFRα1- and Ret/GFRα1-expressing MDCK cells, 15 min): 0.1 pg/mL
time to MET activation (MET [4]; GFRα1-expressing and RET/GFRα1-expressing MDCK cells): ≤ 15 min
duration of MET activation (MET [4]; GFRα1-expressing and RET/GFRα1-expressing MDCK cells, data not shown): at least 2 hours
concentration at which MET is saturated (MET [4]; GFRα1-expressing and RET/GFRα1-expressing MDCK cells, printed as 4 fM (0.1 pg/ml)): 4 fM
MET phosphorylation (MET [4]; wild type MDCK cells): but not in wild type MDCK cells
GDNF concentration that saturated Src phosphorylation (Src-type kinases): 0.1 pg/mL
time at which activation of Src-type kinases was observed (Src-type kinases): 15 min
MET activation (MET [5]): takes place

— patent publication US20080070264A1, “Intracellular Signaling-Induced Ret-Independent Gdnf Receptor-Effected Morphological Changes” (JPMORGAN CHASE BANK N.A., priority 2003, published 2008)
